# Laboratory results taken from PMC3735194 (mBio, 2013).
# Biological target: the molecule itself
# Experiment: native MS
row,Protein,stoichiometry N
1,"D166A mutant ADI (enzyme, UniProt P0C0B3 1-411, looked up) MTAQTPIHVYSEIGKLKKVLLHRPGKEIENLMPDYLERLLFDDIPFLEDAQKEHDAFAQALRDEGIEVLYLETLAAESLVTPEIREAFIDEYLSEANIRGRATKKAIRELLMAIEDNQELIEKTMAGVQKSELPEIPASEKGLTDLVESNYPFAIDPMPNLYFTRAPFATIGTGVSLNHMFSETRNRETLYGKYIFTHHPIYGGGKVPMVYDRNETTRIEGGDELVLSKDVLAVGISQRTDAASIEKLLVNIFKQNLGFKKVLAFEFANNRKFMHLDTVFTMVDYDKFTIHPEIEGDLRVYSVTYDNEELHIVEEKGDLAELLAANLGVEKVDLIRCGGDNLVAAGREQWNDGSNTLTIAPGVVVVYNRNTITNAILESKGLKLIKIHGSELVRGRGGPRCMSMPFEREDI",2
2,"H275A mutant ADI (enzyme, UniProt P0C0B3 1-411, looked up) MTAQTPIHVYSEIGKLKKVLLHRPGKEIENLMPDYLERLLFDDIPFLEDAQKEHDAFAQALRDEGIEVLYLETLAAESLVTPEIREAFIDEYLSEANIRGRATKKAIRELLMAIEDNQELIEKTMAGVQKSELPEIPASEKGLTDLVESNYPFAIDPMPNLYFTRDPFATIGTGVSLNHMFSETRNRETLYGKYIFTHHPIYGGGKVPMVYDRNETTRIEGGDELVLSKDVLAVGISQRTDAASIEKLLVNIFKQNLGFKKVLAFEFANNRKFMALDTVFTMVDYDKFTIHPEIEGDLRVYSVTYDNEELHIVEEKGDLAELLAANLGVEKVDLIRCGGDNLVAAGREQWNDGSNTLTIAPGVVVVYNRNTITNAILESKGLKLIKIHGSELVRGRGGPRCMSMPFEREDI",2
3,"D277A mutant ADI (enzyme, UniProt P0C0B3 1-411, looked up) MTAQTPIHVYSEIGKLKKVLLHRPGKEIENLMPDYLERLLFDDIPFLEDAQKEHDAFAQALRDEGIEVLYLETLAAESLVTPEIREAFIDEYLSEANIRGRATKKAIRELLMAIEDNQELIEKTMAGVQKSELPEIPASEKGLTDLVESNYPFAIDPMPNLYFTRDPFATIGTGVSLNHMFSETRNRETLYGKYIFTHHPIYGGGKVPMVYDRNETTRIEGGDELVLSKDVLAVGISQRTDAASIEKLLVNIFKQNLGFKKVLAFEFANNRKFMHLATVFTMVDYDKFTIHPEIEGDLRVYSVTYDNEELHIVEEKGDLAELLAANLGVEKVDLIRCGGDNLVAAGREQWNDGSNTLTIAPGVVVVYNRNTITNAILESKGLKLIKIHGSELVRGRGGPRCMSMPFEREDI",2
4,"E220A mutant ADI (enzyme, UniProt P0C0B3 1-411, looked up) MTAQTPIHVYSEIGKLKKVLLHRPGKEIENLMPDYLERLLFDDIPFLEDAQKEHDAFAQALRDEGIEVLYLETLAAESLVTPEIREAFIDEYLSEANIRGRATKKAIRELLMAIEDNQELIEKTMAGVQKSELPEIPASEKGLTDLVESNYPFAIDPMPNLYFTRDPFATIGTGVSLNHMFSETRNRETLYGKYIFTHHPIYGGGKVPMVYDRNETTRIAGGDELVLSKDVLAVGISQRTDAASIEKLLVNIFKQNLGFKKVLAFEFANNRKFMHLDTVFTMVDYDKFTIHPEIEGDLRVYSVTYDNEELHIVEEKGDLAELLAANLGVEKVDLIRCGGDNLVAAGREQWNDGSNTLTIAPGVVVVYNRNTITNAILESKGLKLIKIHGSELVRGRGGPRCMSMPFEREDI",2
5,"C401A mutant ADI (enzyme, UniProt P0C0B3 1-411, looked up) MTAQTPIHVYSEIGKLKKVLLHRPGKEIENLMPDYLERLLFDDIPFLEDAQKEHDAFAQALRDEGIEVLYLETLAAESLVTPEIREAFIDEYLSEANIRGRATKKAIRELLMAIEDNQELIEKTMAGVQKSELPEIPASEKGLTDLVESNYPFAIDPMPNLYFTRDPFATIGTGVSLNHMFSETRNRETLYGKYIFTHHPIYGGGKVPMVYDRNETTRIEGGDELVLSKDVLAVGISQRTDAASIEKLLVNIFKQNLGFKKVLAFEFANNRKFMHLDTVFTMVDYDKFTIHPEIEGDLRVYSVTYDNEELHIVEEKGDLAELLAANLGVEKVDLIRCGGDNLVAAGREQWNDGSNTLTIAPGVVVVYNRNTITNAILESKGLKLIKIHGSELVRGRGGPRAMSMPFEREDI",4
